We go through six molecules from article PMC11447106 (Clinical and Translational Medicine, 2024).

Series [1] is described as follows: CHX chase, Flag-NRF2 remaining; NCI-H1299, HEK293T. Particulars: glycan lost; control: Flag-NRF2WT.
Series [2] is described as follows: H2O2-induced ARE luciferase activity. Particulars: glycan lost; control: NCI-H1299 NRF2-WT cells + H2O2.
The nature of series [3]: xenograft growth under cisplatin 1.5 or 3.0 mg/kg. The settings on record: glycan lost; control: NCI-H1299 NRF2-WT xenografts + cisplatin.
A short description of series [4]: RT-PCR of NRF2 target genes in xenografts. Particulars: glycan lost; control: NCI-H1299 NRF2-WT xenografts.
Series [5] can be described thus: NRF2 level in xenografts, IHC and WB. Particulars: glycan lost; control: NCI-H1299 NRF2-WT xenografts.
A short description of series [6]: H2O2-induced nuclear translocation, fractionation. The settings on record: glycan lost; control: NCI-H1299 NRF2-WT cells + H2O2.
The nature of series [7]: endogenous NRF2 stability by WB, knock-in cells. Particulars: glycan lost; control: NCI-H1299 NRF2-WT cells.
The nature of a further series: cisplatin IC50 in cells. Particulars: glycan lost; control: NCI-H1299 NRF2-WT cells.
The next series has as its target T1, GST-OGT^WT (UniProt O15294-3 1-1036).
T1 construct: OGT, wild type; The printed Thr444 fits the 1036-residue isoform
T1 sequence (looked up): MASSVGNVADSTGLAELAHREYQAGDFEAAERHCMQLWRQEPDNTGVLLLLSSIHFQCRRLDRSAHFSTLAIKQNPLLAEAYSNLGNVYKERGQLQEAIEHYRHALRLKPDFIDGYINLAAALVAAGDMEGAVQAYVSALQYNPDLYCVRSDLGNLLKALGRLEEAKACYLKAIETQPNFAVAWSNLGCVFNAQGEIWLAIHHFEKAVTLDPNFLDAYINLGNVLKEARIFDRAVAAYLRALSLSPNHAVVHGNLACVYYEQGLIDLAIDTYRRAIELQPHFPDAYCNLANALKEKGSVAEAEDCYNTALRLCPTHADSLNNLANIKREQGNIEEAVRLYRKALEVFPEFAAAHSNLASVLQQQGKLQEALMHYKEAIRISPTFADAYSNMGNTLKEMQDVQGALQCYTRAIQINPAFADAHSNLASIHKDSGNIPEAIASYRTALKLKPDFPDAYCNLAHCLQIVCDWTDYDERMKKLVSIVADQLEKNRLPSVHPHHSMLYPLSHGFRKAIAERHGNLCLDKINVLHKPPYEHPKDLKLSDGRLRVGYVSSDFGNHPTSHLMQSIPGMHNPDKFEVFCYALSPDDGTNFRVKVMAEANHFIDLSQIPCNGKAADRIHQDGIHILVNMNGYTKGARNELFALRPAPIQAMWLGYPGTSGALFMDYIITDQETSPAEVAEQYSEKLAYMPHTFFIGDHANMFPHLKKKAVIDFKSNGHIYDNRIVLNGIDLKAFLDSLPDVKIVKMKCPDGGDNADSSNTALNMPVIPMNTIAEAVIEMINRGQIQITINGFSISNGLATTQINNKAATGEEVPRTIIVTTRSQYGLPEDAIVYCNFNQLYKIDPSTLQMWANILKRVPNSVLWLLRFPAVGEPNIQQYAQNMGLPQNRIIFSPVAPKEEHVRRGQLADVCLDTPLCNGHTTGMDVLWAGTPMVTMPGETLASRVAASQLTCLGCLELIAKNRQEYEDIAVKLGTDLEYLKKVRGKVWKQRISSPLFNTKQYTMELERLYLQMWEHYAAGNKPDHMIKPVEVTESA
The series can be described thus: pull-down; in vitro GST pull-down; GST-OGT^WT or GST-OGT^T444E with His-NRF2. Particulars: both partners purified.

For a further series, the target named is T2, GST-OGT^T444E (UniProt O15294-3 1-1036, T444E).
T2 construct: OGT with T444E (mimics phosphorylation at Thr444); The printed Thr444 fits the 1036-residue isoform
T2 sequence (looked up): T1 sequence (looked up) with T444E
The series is described as above. Particulars: both partners purified.

A short description of series [8]: WB of NRF2 after OGT KD or overexpression. The settings on record: glycan lost; control: control NCI-H1299 cells.

Numbering of substitutions follows the chain as printed. Numbers in names are those of the source.

B1: NRF2: S103A (protein)
parent chain: MMDLELPPPGLPSQQDMDLIDILWRQDIDLGVSREVFDFSQRRKEYELEKQKKLEKERQEQLQKEQEKAFFAQLQLDEETGEFLPIQPAQHIQSETSGSANYSQVAHIPKSDALYFDDCMQLLAQTFPFVDDNEVSSATFQSLVPDIPGHIESPVFIATNQAQSPETSVAQVAPVDLDGMQQDIEQVWEELLSIPELQCLNIENDKLVETTMVPSPEAKLTEVDNYHFYSSIPSMEKEVGNCSPHFLNAFEDSFSSILSTEDPNQLTVNSLNSDATVNTDFGDEFYSAFIAEPSISNSMPSPATLSHSLSELLNGPIDVSDLSLCKAFNQNHPESTAEFNDSDSGISLNTSPSVASPEHSVESSSYGDTLLGLSDSEVEELDSAPGSVKQNGPKTPVHSSGDMVQPLSPSQGQSTHVHDAQCENTPEKELPVSPGHRKTPFTKDKHSSRLEAHLTRDELRAKALHIPFPVEKIINLPVVDFNEMMSKEQFNEAQLALIRDIRRRGKNKVAAQNCRKRKLENIVELEQDLDHLKDEKEKLLKEKGENDKSLHLLKKQLSTLYLEVFSMLRDEDGKPYSPSEYSLQQTRDGNVFLVPKSKKPDVKKN
In the case of B1, the degradation_or_half_life entry in series [1] and in [7] was “decreases” throughout. Also, the “other: transcriptional activity” value in series [2] and in series [4] was “decreases” each time. Further, the “other: cisplatin resistance” value in [3] was “decreases”. Further, in series [5], the expression_or_secretion entry was “decreases”. Also, the localisation_or_trafficking result in series [6] is reported as “decreases”. For the same molecule, the “other: cisplatin resistance, IC50” value in the series “cisplatin IC50 in cells” was “decreases, 19.53 vs 31.83”.

B2: NRF2: S310A (protein)
parent chain: B1 parent chain
As for B2, the degradation_or_half_life result in series [1] is given as “no change”.

B3: His-NRF2 (natural protein, UniProt Q16236 1-605, looked up)
chain: B1 parent chain
notes: NRF2; Construct details are said to be in the Supplementary Information
Turning to B3, the binding result with GST-OGT^WT and in the series with GST-OGT^T444E was “binds” throughout.

B4: NRF2: S111A (protein)
parent chain: B1 parent chain
As to B4, the degradation_or_half_life result in series [1] is “no change”.

B5: NRF2: T350A (protein)
parent chain: B1 parent chain
In the case of B5, the degradation_or_half_life result in [1] is reported as “no change”.

B6: NRF2: OGT knockdown (protein)
parent chain: B1 parent chain
Regarding B6, the expression_or_secretion result in series [8] is listed as “decreases”.
